Measured values reported in the supplement of paper PMC9170038.

Test system: MS2 coat protein
Assay: apparent KD of MS2 coat protein; higher = weaker reporter binding
Conditions: Eterna round: R107; input ligand: theophylline 20 uM
Summary of the method: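 Illumina sequencing clusters were used for on-chip transcription of designed RNA switches. Titration with SNAP-549-labelled MS2 coat protein followed, in twofold steps from 0.7 or 1.5 nM to 3 µM in 100 mM Tris-HCl pH 7.5, 80 mM KCl, 4 mM MgCl2, without or with constant ligand. Apparent KD is each design's median of fits to normalised cluster binding curves.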

Point of comparison: “AAUCGGACUCGUACAGCAUGUUGAGCGGAAGGAGCGGCGAAAGAGCCAGGUAGGUCGCCGCCGACAUGAGGAUCACCCAUGUACG [Orenti]”, “apparent KD of MS2 coat protein” value 177 nM. Against it:
- UGGGCAUACAUGAGGAUCACCCAUGUAGAUACCAGCACUAGCCUGUGCCCUUGGCAGCUAACCGGGUCGAGAACUUAGUGCUCCU [Lexele] — 8.1-fold lower, 21.9 nM
- CGAUUUAAGACGGCCGCCACUAUUAAGUAACAAAAUAAACAUGAGGAUCACCCAUGUACAUGGGAUAGGACCGGGUCCAAUAUCG [A2] — 2.2-fold lower, 79.7 nM
- AGCACGGUGAUGGUAGCCGGACGCUAGGUACGAGGACCGGUACGGCCGCCACUCGAAGUCCUACGACAUGAGGAUCACCCAUGUA [Same State Trp A GF13] — 3-fold lower, 59.2 nM
- GCCUCAUGUAGAAGGAGCGUCAGAAGCUACAGACAUGAGGAUCACCCAUGUUAGUUGAUCUGACAGGUAGGUCGCUACAGCAGGA [Arg B SS t7] — 3.9-fold lower, 44.9 nM
- UGUUUGGUGCGCGAGUGUUGGAUAAUUGAUACCAGUGUAGAUGUACGCCCUUGGCAGCGAAUCCGAACAUGAGGAUCACCCAUGU [5.aA] — 3.9-fold lower, 45.6 nM
- AAGGUGAUCCCAGAUACCAGCUUAACAUGAGGAUCACCCAUGUUUGGGACGAAAGUCCCGGGCCCUUGGCAGCUGGGUUGCCAAG [SSTheo B #18] — 2.3-fold higher, 402 nM
- UCGGUGCUCUACAUGAGGAUCACCCAUGUCCGAGGACCGGUACGGCCGCCACUCGCAAUCAAACAGACGUGGGCCAACUUUGCGU [Tiribeesqu] — 15-fold lower, 12.1 nM
- AAUACAUGAGGAUCACCCAUGUAAGCUGAAGGAGCGCUGGAAACAGCAGGUAGGUCGCAGCUGCGACCUUGGUGAUCUAGGUCGC [(M1)-(M2)-(Arg1)-(Arg2)-(A)'-(M)'-(A)''_Design7] — 4.9-fold lower, 35.8 nM

Same assay, conditions: Eterna round: R107; input ligand: theophylline 2 mM

Point of comparison: “UCGGGCAGAGCGGCCGCCACUGUUUGGCAUGCGGAUGAAGGAACAUGAGGAUCACCCAUGUAGAUUAGGACCGGGCUGGCGGAGA [jjhemullin]”, “apparent KD of MS2 coat protein” value 39.4 nM. Against it:
- AAACAUGAGGAUCACCCAUGUAUACUUAGACGAGGACCGGUACGGCCGCCACUCGAACUUCAAGAUUUGGCGGAUAAUGUAUGUA [JR_Nu22_ExcTryptoA_Sub023] — 3.3-fold lower, 11.9 nM
- GCCGGGCCUUCGGCCGCCACUGAGAGAGUCGUGUGAACAUGAGGAUCACCCAUGUAAUAUAUAUACAGGACCGGGAGGGCCCGGC [4.V] — 2.6-fold lower, 14.9 nM
- UGUCGAAACUGAAGGAGCGAGAUGACAACAUUGGGUCUAACAUGAGGAUCACCCAUGUAAUCUCAGGUAGGUCGCAGUGACAAAA [Exclusion Arginine B GF 15] — 3.4-fold higher, 133 nM
- UUCAGCUAGUCGGCCGCCACUACAAGAGGAUCACCCUUGUAGGUCCACACUGCUUCGGCAGUGAGUAGGACCGGGACUAGCUGAG — 2.9-fold lower, 13.7 nM
- AGACAUGAGGAUCACCCAUGUAGUACGGAUACCAGAUCCAGAUGUAUCCCUUGGCAGCUGUGGUACAGCGUUGCAUCGCUCCUAG [Exclusion - Theophylline A (Freestyle 19)] — 2-fold lower, 20.1 nM
- CGAUUUAAGACGGCCGCCACUAUUAAGUAACAAAAUAAACAUGAGGAUCACCCAUGUACAUGGGAUAGGACCGGGUCCAAUAUCG [A2] — 2.1-fold higher, 84.4 nM
- AGCACGGUGAUGGUAGCCGGACGCUAGGUACGAGGACCGGUACGGCCGCCACUCGAAGUCCUACGACAUGAGGAUCACCCAUGUA [Same State Trp A GF13] — 1.9-fold higher, 75.2 nM
- GCCUCAUGUAGAAGGAGCGUCAGAAGCUACAGACAUGAGGAUCACCCAUGUUAGUUGAUCUGACAGGUAGGUCGCUACAGCAGGA [Arg B SS t7] — within 1.5-fold, 41.1 nM
- AAUCGGACUCGUACAGCAUGUUGAGCGGAAGGAGCGGCGAAAGAGCCAGGUAGGUCGCCGCCGACAUGAGGAUCACCCAUGUACG [Orenti] — 6.5-fold higher, 258 nM
- UCGGUGCUCUACAUGAGGAUCACCCAUGUCCGAGGACCGGUACGGCCGCCACUCGCAAUCAAACAGACGUGGGCCAACUUUGCGU [Tiribeesqu] — 3.6-fold lower, 11 nM
- AAUACAUGAGGAUCACCCAUGUAAGCUGAAGGAGCGCUGGAAACAGCAGGUAGGUCGCAGCUGCGACCUUGGUGAUCUAGGUCGC [(M1)-(M2)-(Arg1)-(Arg2)-(A)'-(M)'-(A)''_Design7] — within 1.5-fold, 46.7 nM

Same assay, conditions: Eterna round: R107; input ligand: tryptophan 2.4 mM

Point of comparison: “UGUAACAUGAGGAUCACCCAUGUGCACGAUACCAGCUUAUUGGUAGGCCCUUGGCAGCGUAUUCGGAAGAUGUAUAAUAUAUAUC [#26 SameState-TheophyllineA]”, “apparent KD of MS2 coat protein” value 12.1 nM. Against it:
- AAACAUGAGGAUCACCCAUGUAUACUUAGACGAGGACCGGUACGGCCGCCACUCGAACUUCAAGAUUUGGCGGAUAAUGUAUGUA [JR_Nu22_ExcTryptoA_Sub023] — within 1.5-fold, 11.9 nM
- GCCGGGCCUUCGGCCGCCACUGAGAGAGUCGUGUGAACAUGAGGAUCACCCAUGUAAUAUAUAUACAGGACCGGGAGGGCCCGGC [4.V] — within 1.5-fold, 10.4 nM
- UGUCGAAACUGAAGGAGCGAGAUGACAACAUUGGGUCUAACAUGAGGAUCACCCAUGUAAUCUCAGGUAGGUCGCAGUGACAAAA [Exclusion Arginine B GF 15] — 10-fold higher, 121 nM
- ACAUCCAGGUUAAUCGUGGGCAUACUCGAUACCAGUAUUUUAAUCUACCCUUGGCAGCGACAUGAGGAUCACCCAUGUGCGAUGA [XTheo A #12] — within 1.5-fold, 13.4 nM
- UCGGGCAGAGCGGCCGCCACUGUUUGGCAUGCGGAUGAAGGAACAUGAGGAUCACCCAUGUAGAUUAGGACCGGGCUGGCGGAGA [jjhemullin] — 3-fold higher, 36.5 nM
- UUCAGCUAGUCGGCCGCCACUACAAGAGGAUCACCCUUGUAGGUCCACACUGCUUCGGCAGUGAGUAGGACCGGGACUAGCUGAG — within 1.5-fold, 17.7 nM
- AGACAUGAGGAUCACCCAUGUAGUACGGAUACCAGAUCCAGAUGUAUCCCUUGGCAGCUGUGGUACAGCGUUGCAUCGCUCCUAG [Exclusion - Theophylline A (Freestyle 19)] — within 1.5-fold, 14.4 nM
- UGGGCAUACAUGAGGAUCACCCAUGUAGAUACCAGCACUAGCCUGUGCCCUUGGCAGCUAACCGGGUCGAGAACUUAGUGCUCCU [Lexele] — within 1.5-fold, 11.5 nM
- GCCUCAUGUAGAAGGAGCGUCAGAAGCUACAGACAUGAGGAUCACCCAUGUUAGUUGAUCUGACAGGUAGGUCGCUACAGCAGGA [Arg B SS t7] — 2.9-fold higher, 34.9 nM
- UGUUUGGUGCGCGAGUGUUGGAUAAUUGAUACCAGUGUAGAUGUACGCCCUUGGCAGCGAAUCCGAACAUGAGGAUCACCCAUGU [5.aA] — 2.5-fold higher, 30.2 nM
- AAGGUGAUCCCAGAUACCAGCUUAACAUGAGGAUCACCCAUGUUUGGGACGAAAGUCCCGGGCCCUUGGCAGCUGGGUUGCCAAG [SSTheo B #18] — 14-fold higher, 174 nM
- AAUCGGACUCGUACAGCAUGUUGAGCGGAAGGAGCGGCGAAAGAGCCAGGUAGGUCGCCGCCGACAUGAGGAUCACCCAUGUACG [Orenti] — 9.1-fold higher, 110 nM
- AAUACAUGAGGAUCACCCAUGUAAGCUGAAGGAGCGCUGGAAACAGCAGGUAGGUCGCAGCUGCGACCUUGGUGAUCUAGGUCGC [(M1)-(M2)-(Arg1)-(Arg2)-(A)'-(M)'-(A)''_Design7] — 2-fold higher, 24.3 nM
